For 3 substances, response (relative intensity) results are on record in paper PMC4126377.

The target of the assay is α- and β-tropomyosin. Kind of assay: GST pull-down. Conditions: all curves start at 1 at 7.5 µg, read off a plot.

As for “GST-nebulin super repeat 9 (S9), wild type (from UniProt P20929-3) p.Glu2431Lys”, the response (relative intensity) is, setting by setting: (sub-panel NEB ex54 (super repeat 9), curve 54m, 15 µg α- and β-tropomyosin, parent: est. 1.25) 1.27; (sub-panel NEB ex54 (super repeat 9), curve 54m, 30 µg α- and β-tropomyosin, parent: est. 1.30) 1.36; (sub-panel NEB ex54 (super repeat 9), curve 54m, 60 µg α- and β-tropomyosin, parent: est. 1.30) 1.37.
As for “GST-nebulin super repeat 18 (S18), wild type (from UniProt P20929-3) p.Ser6366Ile”, the response (relative intensity) is 1.08 (sub-panel NEB ex122 (super repeat 18), curve 122m, 15 µg α- and β-tropomyosin, parent: est. 1.07); 1.19 (sub-panel NEB ex122 (super repeat 18), curve 122m, 30 µg α- and β-tropomyosin, parent: est. 1.18); 1.2 (sub-panel NEB ex122 (super repeat 18), curve 122m, 60 µg α- and β-tropomyosin, parent: est. 1.18).
Take “GST-nebulin super repeat 22 (S22), wild type (from UniProt P20929-3) p.Thr7382Pro”: the response (relative intensity) is, setting by setting: (sub-panel NEB ex151 (super repeat 22), curve 151m, 15 µg α- and β-tropomyosin, parent: est. 1.28) 1.12; (sub-panel NEB ex151 (super repeat 22), curve 151m, 30 µg α- and β-tropomyosin, parent: est. 1.33) 1.17; (sub-panel NEB ex151 (super repeat 22), curve 151m, 60 µg α- and β-tropomyosin, parent: est. 1.34) 1.18.
